These results are taken from IntAct's records for PubMed 22921829.

The labels stand for the following.
B1: E3 ubiquitin-protein ligase SMURF1 (Homo sapiens), Q9HCE7-1 (parent)
chain: MSNPGTRRNGSSIKIRLTVLCAKNLAKKDFFRLPDPFAKIVVDGSGQCHSTDTVKNTLDPKWNQHYDLYVGKTDSITISVWNHKKIHKKQGAGFLGCVRLLSNAISRLKDTGYQRLDLCKLNPSDTDAVRGQIVVSLQTRDRIGTGGSVVDCRGLLENEGTVYEDSGPGRPLSCFMEEPAPYTDSTGAAAGGGNCRFVESPSQDQRLQAQRLRNPDVRGSLQTPQNRPHGHQSPELPEGYEQRTTVQGQVYFLHTQTGVSTWHDPRIPSPSGTIPGGDAAFLYEFLLQGHTSEPRDLNSVNCDELGPLPPGWEVRSTVSGRIYFVDHNNRTTQFTDPRLHHIMNHQCQLKEPSQPLPLPSEGSLEDEELPAQRYERDLVQKLKVLRHELSLQQPQAGHCRIEVSREEIFEESYRQIMKMRPKDLKKRLMVKFRGEEGLDYGGVAREWLYLLCHEMLNPYYGLFQYSTDNIYMLQINPDSSINPDHLSYFHFVGRIMGLAVFHGHYINGGFTVPFYKQLLGKPIQLSDLESVDPELHKSLVWILENDITPVLDHTFCVEHNAFGRILQHELKPNGRNVPVTEENKKEYVRLYVNWRFMRGIEAQFLALQKGFNELIPQHLLKPFDQKELELIIGGLDKIDLNDWKSNTRLKHCVADSNIVRWFWQAVETFDEERRARLLQFVTGSTRVPLQGFKALQGSTGAAGPRLFTIHLIDANTDNLPKAHTCFNRIDIPPYESYEKLYEKLLTAVEETCGFAVE
B2: Mothers against decapentaplegic homolog 7 (Homo sapiens), O15105 (parent)
chain: MFRTKRSALVRRLWRSRAPGGEDEEEGAGGGGGGGELRGEGATDSRAHGAGGGGPGRAGCCLGKAVRGAKGHHHPHPPAAGAGAAGGAEADLKALTHSVLKKLKERQLELLLQAVESRGGTRTACLLLPGRLDCRLGPGAPAGAQPAQPPSSYSLPLLLCKVFRWPDLRHSSEVKRLCCCESYGKINPELVCCNPHHLSRLCELESPPPPYSRYPMDFLKPTADCPDAVPSSAETGGTNYLAPGGLSDSQLLLEPGDRSHWCVVAYWEEKTRVGRLYCVQEPSLDIFYDLPQGNGFCLGQLNSDNKSQLVQKVRSKIGCGIQLTREVDGVWVYNRSSYPIFIKSATLDNPDSRTLLVHKVFPGFSIKAFDYEKAYSLQRPNDHEFMQQPWTGFTVQISFVKGWGQCYTRQFISSCPCWLEVIFNSR
B3: Mothers against decapentaplegic homolog 3 (Homo sapiens), P84022 (parent)
chain: MSSILPFTPPIVKRLLGWKKGEQNGQEEKWCEKAVKSLVKKLKKTGQLDELEKAITTQNVNTKCITIPRSLDGRLQVSHRKGLPHVIYCRLWRWPDLHSHHELRAMELCEFAFNMKKDEVCVNPYHYQRVETPVLPPVLVPRHTEIPAEFPPLDDYSHSIPENTNFPAGIEPQSNIPETPPPGYLSEDGETSDHQMNHSMDAGSPNLSPNPMSPAHNNLDLQPVTYCEPAFWCSISYYELNQRVGETFHASQPSMTVDGFTDPSNSERFCLGLLSNVNRNAAVELTRRHIGRGVRLYYIGGEVFAECLSDSAIFVQSPNCNQRYGWHPATVCKIPPGCNLKIFNNQEFAALLAQSVNQGFEAVYQLTRMCTIRMSFVKGWGAEYRRQTVTSTPCWIELHLNGPLQWLDKVLTQMGSPSIRCSSVS
B4: E3 ubiquitin-protein ligase NEDD4-like (Homo sapiens), Q96PU5-5 (parent)
chain: MATGLGEPVYGLSEDEGESRILRVKVVSGIDLAKKDIFGASDPYVKLSLYVADENRELALVQTKTIKKTLNPKWNEEFYFRVNPSNHRLLFEVFDENRLTRDDFLGQVDVPLSHLPTEDPTMERPYTFKDFLLRPRSHKSRVKGFLRLKMAYMPKNGGQDEENSDQRDDMEHGWEVVDSNDSASQHQEELPPPPLPPGWEEKVDNLGRTYYVNHNNRTTQWHRPSLMDVSSESDNNIRQINQEAAHRRFRSRRHISEDLEPEPSEGGDVPEPWETISEEVNIAGDSLGLALPPPPASPGSRTSPQELSEELSRRLQITPDSNGEQFSSLIQREPSSRLRSCSVTDAVAEQGHLPPPSVAYVHTTPGLPSGWEERKDAKGRTYYVNHNNRTTTWTRPIMQLAEDGASGSATNSNNHLIEPQIRRPRSLSSPTVTLSAPLEGAKDSPVRRAVKDTLSNPQSPQPSPYNSPKPQHKVTQSFLPPGWEMRIAPNGRPFFIDHNTKTTTWEDPRLKFPVHMRSKTSLNPNDLGPLPPGWEERIHLDGRTFYIDHNSKITQWEDPRLQNPAITGPAVPYSREFKQKYDYFRKKLKKPADIPNRFEMKLHRNNIFEESYRRIMSVKRPDVLKARLWIEFESEKGLDYGGVAREWFFLLSKEMFNPYYGLFEYSATDNYTLQINPNSGLCNEDHLSYFTFIGRVAGLAVFHGKLLDGFFIRPFYKMMLGKQITLNDMESVDSEYYNSLKWILENDPTELDLMFCIDEENFGQTYQVDLKPNGSEIMVTNENKREYIDLVIQWRFVNRVQKQMNAFLEGFTELLPIDLIKIFDENELELLMCGLGDVDVNDWRQHSIYKNGYCPNHPVIQWFWKAVLLMDAEKRIRLLQFVTGTSRVPMNGFAELYGSNGPQLFTIEQWGSPEKLPRAHTCFNRLDLPPYETFEDLREKLLMAVENAQGFEGVD

One test covers variants of B1. The settings on record: with smad7_human SMAD7, O15105.
With Q247E;Q249E, the “effect of a mutation on the interaction” value was “decreasing interaction strength”.

In the case of R243A, the “effect of a mutation on the interaction” value is given as “decreasing interaction strength”.

Turning to R243E, the “effect of a mutation on the interaction” value is “decreasing interaction strength”.

For Q249E, the “effect of a mutation on the interaction” value is “decreasing interaction strength”.

The next test covers variants of B2. The settings on record: with NEDD4L.
On to MFRTKRSALVRRLWRSRAPGGEDEEEGAGGGGGGGELRGEGATDSRAHGAGGGGPGRAGCCLGKAVRGAKGHHHPHPPAAGAGAAGGAEADLKALTHSVLKKLKERQLELLLQAVESRGGTRTACLLLPGRLDCRLGPGAPAGAQPAQPPSSYSLPLLLCKVFRWPDLRHSSEVKRLCCCESYGKINPELVCCNPHHLSRLCELESPAAPYSRYPMDFLKPTADCPDAVPSSAETGGTNYLAPGGLSDSQLLLEPGDRSHWCVVAYWEEKTRVGRLYCVQEPSLDIFYDLPQGNGFCLGQLNSDNKSQLVQKVRSKIGCGIQLTREVDGVWVYNRSSYPIFIKSATLDNPDSRTLLVHKVFPGFSIKAFDYEKAYSLQRPNDHEFMQQPWTGFTVQISFVKGWGQCYTRQFISSCPCWLEVIFNSR [P208A;P209A], for which the “effect of a mutation on the interaction” value is “disrupting interaction strength”.

Variants of B3 are the subject of a further test. The settings on record: with NEDD4L.
Turning to P181A;P182A, the “effect of a mutation on the interaction” value is “disrupting interaction strength”.

With T179A, the “effect of a mutation on the interaction” value was “disrupting interaction strength”.

In a further test the parent is B4. The note with it: with smad7_human SMAD7, O15105.
For K378E;R380E, the “effect of a mutation on the interaction” value was “decreasing interaction strength”.

On to K378E, for which the “effect of a mutation on the interaction” value is on record as “decreasing interaction strength”.

On to R380E, for which the “effect of a mutation on the interaction” value is listed as “decreasing interaction strength”.
